In experiment [1] the target is T1, human glycophorin A on human red blood cells or red blood cell membranes (human, UniProt P02724 20-150).
T1 construct: whole, on cells; also called hRBC; human RBC membranes
T1 sequence (looked up): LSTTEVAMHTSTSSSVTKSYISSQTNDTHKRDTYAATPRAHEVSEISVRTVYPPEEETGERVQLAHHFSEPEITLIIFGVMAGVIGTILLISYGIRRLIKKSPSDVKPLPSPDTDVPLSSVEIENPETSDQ
Put plainly: scFv 7 ug/ml on intact human RBC, unbound scFv by ELISA; pre-dilution. In general terms: ELISA stands for enzyme-linked immunosorbent assay.
Protocol: (§1) RBC diluted to 1/10th of normal hematocrit were incubated with the set of “Top 10” purified scFv antibodies at a final concentration of 7 ug/ml for 1 hour at room temperature on a rotating shaker after which a sample was taken and the RBC were pelleted by centrifugation and the supernatant was collected. The remaining RBC suspension was diluted 200-fold in PBS buffer and incubated for a total of 2 hours at room temperature on a rotating shaker and samples were removed at 0, 5 min, 20 min, 1 h and 2 h and the RBC pelleted and the supernatant collected. […] The percentage that remains bound after dilution is an indication of the overall strength of the binding to human RBC.

For experiment [2], the target named is T1, human glycophorin A on human red blood …. Put plainly: scFv on intact human RBC, unbound scFv by ELISA; 0 min after 200-fold dilution.
Protocol: as §1
Experiment [3] has the same target. Put plainly: scFv on intact human RBC, unbound scFv by ELISA; 5 min after 200-fold dilution.
Protocol: as §1
For experiment [4] the target is unchanged. Put plainly: scFv on intact human RBC, unbound scFv by ELISA; 20 min after 200-fold dilution.
Protocol: as §1
The target is the same in experiment [5]. Put plainly: scFv on intact human RBC, unbound scFv by ELISA; 60 min after 200-fold dilution.
Protocol: as §1
Experiment [6] shares this target. Put plainly: scFv on intact human RBC, unbound scFv by ELISA; 120 min after 200-fold dilution.
Protocol: as §1
Experiment [7] has as its target T2, purified human glycophorin A protein (Sigma, cat # G5017) (human, UniProt P02724 20-150).
T2 construct: mature; also called Sigma hGPA; Sigma GPA
T2 sequence (looked up): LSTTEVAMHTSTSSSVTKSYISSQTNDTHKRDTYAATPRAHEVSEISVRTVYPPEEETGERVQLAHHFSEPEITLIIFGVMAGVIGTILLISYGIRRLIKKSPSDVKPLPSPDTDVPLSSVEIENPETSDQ
Put plainly: ELISA, native hGPA.

In experiment [8] the target is T3, human glycophorin A in the red blood cell membrane (human, UniProt P02724 20-150).
T3 construct: whole, on cells; used for intact RBC, isolated RBC membranes and transfected cells; the assay field tells which; also called GPA; hGPA
T3 sequence (looked up): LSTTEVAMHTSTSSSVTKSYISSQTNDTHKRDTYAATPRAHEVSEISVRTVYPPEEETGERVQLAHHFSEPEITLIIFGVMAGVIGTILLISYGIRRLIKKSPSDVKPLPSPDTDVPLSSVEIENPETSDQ
Put plainly: ELISA, human RBC membranes.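 Further: antibodies bound to isolated human red blood cell membrane ghosts coated on 96-well plates, tested 1.5 h at room temperature, bound antibody quantified with a detection antibody.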

Experiment [9] addresses T4, recombinant human GPA ectodomain (human, UniProt P02724 20-91).
T4 construct: also called recombinant hGPA ECD; recGPA
T4 sequence: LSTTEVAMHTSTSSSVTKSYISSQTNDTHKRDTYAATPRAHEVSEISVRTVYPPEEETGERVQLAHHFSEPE
Put plainly: ELISA, rec hGPA ectodomain.

For experiment [10], the target named is T3, human glycophorin A in the red blood …. Put plainly: SPR (Biacore), single cycle kinetics, human RBC membranes on L1 sensor, Fab flowed over. For orientation: Surface plasmon resonance follows binding to a sensor surface in real time, without labels.
Protocol: Kinetic analysis of the antibody binding to human red blood cell membranes was also performed using surface plasmon resonance (SPR) using a Biacore instrument. In this assay membranes prepared from human red blood cells were attached to a L1 sensor matrix and antibodies were flowed over the RBC membranes.

Usually Kd stands for the free concentration of one partner at which half of the binding sites on the other are occupied at equilibrium, for simple one-to-one binding. Read a high Kd as lower affinity. One may read the koff as the rate constant with which the complex falls apart. What is called kon is the rate constant with which the complex forms.

B1: TPP-7790 scFv with C-terminal 6xHIS tag (scFv)
scFv: DIQLTQSPSFLSASVGDRVTITCRASSSVRYIYWFQQKPGKAPKLLIYATSFLQSGVPSRFSGSGSGTEYTLTISSLQPEDFATYYCHQRNSFPYTFGQGTKLEIKGGGGSGGGGSGGGGSGGGGSEVQLVQSGAEVKKPGASVKVSCKASGYTFTTYAIHWVRQAPGQGLEWMGYINPSSGYTRYNPKFKHRVTMTRDKSTSTAYMELRSLRSDDTAVYYCWTGTRDYWGQGTTVTVSSHHHHHH
As for B1, the “percentage of input scFv antibody bound” value in experiment [1] was found to be 99%; in experiment [2], 99%; in experiment [3] it was 99%; in experiment [4] it was 99%; in [5], 94%; in experiment [6] it was 87%.

B2: TPP-7797 scFv with C-terminal 6xHIS tag (scFv)
scFv: DIQLTQSPSFLSASVGDRVTITCRASSSVRYIYWFQQKPGKAPKLLIYATSFRQSGVPSRFSGSGSGTEYTLTISSLQPEDFATYYCHQRNSFPYTFGQGTKLEIKGGGGSGGGGSGGGGSGGGGSEVQLVQSGAEVKKPGASVKVSCKASGYTFTTYTIHWVRQAPGQGLEWMGYINPSSGYTRYNPKFKGRVTMTRDKSTSTAYMELRSLRSDDTAVYYCWTGRRDYWGQGTTVTVSSHHHHHH
Regarding B2, the “percentage of input scFv antibody bound” value in experiment [1] amounted to 98%; in experiment [2], 98%; in [3] it was 98%; in [4], 98%; in experiment [5] it was 99%; in experiment [6] it was 97%.

B3: TPP-7793 scFv with C-terminal 6xHIS tag (scFv)
scFv: DIQLTQSPSFLSASVGDRVTITCRASSSVSYIYWFQQKPGKAPKLLIYATSTLQSGVPSRFSGSGSGTEYTLTISSLQPEDFATYYCHQRNSFPYTFGQGTKLEIKGGGGSGGGGSGGGGSGGGGSEVQLVQSGAEVKKPGASVKVSCKASGYTFTRYTIHWVRQAPGQGLEWMGYINPSSGYTRYNPKFKGRVTMTRDKSTSTAYMELRSLRSDDTAVYYCWTGTRDYWGQGTTVTVSSHHHHHH
As for B3, the “percentage of input scFv antibody bound” value came to 92% in [1]; 92% in experiment [2]; 92% in experiment [3]; 84% in experiment [4]; 81% in experiment [5]; 79% in experiment [6].

B4: TPP-7795 scFv with C-terminal 6xHIS tag (scFv)
scFv: DIQLTQSPSFLSASVGDRVTITCRASSSVSYIYWFQQKPGKAPKLLIYATSFLQSGVPSRFSGSGSGTEYTLTISSLQPEDFATYYCHQRNSFPYTFGQGTKLEIKGGGGSGGGGSGGGGSGGGGSEVQLVQSGAEVKKPGASVKVSCKASGYTFTTYTIHWVRQAPGQGLEWMGYINPKSGWTRYNPKFKGRVTMTRDKSTSTAYMELRSLRSDDTAVYYCQTGTRDYWGQGTTVTVSSHHHHHH
For B4, the “percentage of input scFv antibody bound” value in experiment [1] was 100%; in experiment [2] it was 100%; in experiment [3], 85%; in [4], 82%; in experiment [5], 84%; in [6], 80%.

B5: TPP-7794 scFv with C-terminal 6xHIS tag (scFv)
scFv: DIQLTQSPSFLSASVGDRVTITCRASSSVRYIYWFQQKPGKAPKLLIYATSFRQSGVPSRFSGSGSGTEYTLTISSLQPEDFATYYCHQRNSFPYTFGQGTKLEIKGGGGSGGGGSGGGGSGGGGSEVQLVQSGAEVKKPGASVKVSCKASGYTFTTYAIHWVRQAPGQGLEWMGYINPSSGYTRYNPKFKHRVTMTRDKSTSTAYMELRSLRSDDTAVYYCWTGTRDYWGQGTTVTVSSHHHHHH
On to B5, for which the “percentage of input scFv antibody bound” value in [1], in [2], in experiment [3], in experiment [4], in [5] and in [6] was 85% in each case.

B6: TPP-5348 (Fab, V domains shown)
VH: EVQLVQSGAEVKKPGASVKVSCKASGYTFTTYTIHWVRQAPGQGLEWIGYINPSSDYTRYNPKFKDRVTLTTDKSTSTAYMELRSLRSDDTAVYYCQTGTRDYWGQGTTVTVSS
VL: DIQLTQSPSFLSASVGDRVTITCSAASSVSYIYWFQQKPGKAPKLLIYATSTLPSGVPSRFSGSGSGTEYTLTISSLQPEDFATYYCHQRNSFPFTFGQGTKLEIKR
notes: also called VL: (S49A)
For B6, the “binding by ELISA relative to parental” value in [7] was determined as 1.62. The “binding by ELISA relative to parental” value in experiment [8] turned out to be 1.76. Besides, the “binding by ELISA relative to parental” value in experiment [9] is 1.5. In [10], this molecule came in with a Kd of 25 nM, an off-rate (koff) of 0.019 s⁻¹ and a kon of 740000 M⁻¹ s⁻¹.

B7: TPP-5350 (Fab, V domains shown)
VH: EVQLVQSGAEVKKPGASVKVSCKASGYTFTTYTIHWVRQAPGQGLEWIGYINPSSDYTRYNPKFKDRVTLTTDKSTSTAYMELRSLRSDDTAVYYCQTGTRDYWGQGTTVTVSS
VL: DIQLTQSPSFLSASVGDRVTITCSAASSVSYIYWFQQKPGKAPKLLIYSTSTLQSGVPSRFSGSGSGTEYTLTISSLQPEDFATYYCHQRNSFPFTFGQGTKLEIKR
notes: also called VL: (P54Q)
In the case of B7, the entries for the “binding by ELISA relative to parental” value in experiment [7], in experiment [8] and in experiment [9] were 1.45, 1.64 and 1.7, respectively. In experiment [10], this molecule yielded a Kd of 34 nM. Besides, the koff in experiment [10] is 0.021 s⁻¹. In [10], this molecule registered a kon of 610000 M⁻¹ s⁻¹.

B8: Fab papain 6C12-24 (Fab, V domains shown)
VH: EVQLVQSGAEVKKPGASVKVSCKASGYTFTTYTIHWVRQAPGQGLEWIGYINPSSDYTRYNPKFKDRVTLTTDKSTSTAYMELRSLRSDDTAVYYCQTGTRDYWGQGTTVTVSS
VL: DIQLTQSPSFLSASVGDRVTITCSAASSVSYIYWFQQKPGKAPKLLIYSTSTLPSGVPSRFSGSGSGTEYTLTISSLQPEDFATYYCHQRNSFPFTFGQGTKLEIK
notes: also called parent: Fab 6C12-24
Turning to B8, in experiment [10], the Kd came to 130 nM, the koff stood at 0.048 s⁻¹ and the kon is 370000 M⁻¹ s⁻¹.

Values taken from US20190359687A1 (Bayer, published 2019).
